How the values were obtained:
[1] = target: T1, MBP-tagged AtBSβ (beta subunit of Arabidopsis thaliana benzaldehyde synthase)
T1 chain: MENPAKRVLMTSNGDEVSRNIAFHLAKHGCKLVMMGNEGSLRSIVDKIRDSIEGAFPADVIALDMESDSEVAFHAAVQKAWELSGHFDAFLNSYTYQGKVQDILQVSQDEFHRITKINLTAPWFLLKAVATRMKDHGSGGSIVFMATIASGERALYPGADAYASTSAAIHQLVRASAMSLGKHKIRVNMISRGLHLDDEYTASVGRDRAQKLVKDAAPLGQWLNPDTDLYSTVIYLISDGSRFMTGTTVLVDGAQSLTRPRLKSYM

[2] = target: T2, MBP-tagged PdBSβ (beta subunit of Prunus dulcis benzaldehyde synthase)
T2 chain: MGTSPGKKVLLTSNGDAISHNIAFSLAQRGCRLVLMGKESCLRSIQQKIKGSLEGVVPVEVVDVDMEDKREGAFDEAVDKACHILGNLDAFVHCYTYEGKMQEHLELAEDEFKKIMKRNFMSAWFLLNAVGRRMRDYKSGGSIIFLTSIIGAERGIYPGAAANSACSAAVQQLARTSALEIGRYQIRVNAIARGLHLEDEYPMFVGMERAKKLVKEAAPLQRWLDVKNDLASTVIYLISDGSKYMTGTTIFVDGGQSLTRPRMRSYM

[3] = target: T3, MBP-tagged PhBSβ (beta subunit of Petunia hybrida benzaldehyde synthase)
T3 chain: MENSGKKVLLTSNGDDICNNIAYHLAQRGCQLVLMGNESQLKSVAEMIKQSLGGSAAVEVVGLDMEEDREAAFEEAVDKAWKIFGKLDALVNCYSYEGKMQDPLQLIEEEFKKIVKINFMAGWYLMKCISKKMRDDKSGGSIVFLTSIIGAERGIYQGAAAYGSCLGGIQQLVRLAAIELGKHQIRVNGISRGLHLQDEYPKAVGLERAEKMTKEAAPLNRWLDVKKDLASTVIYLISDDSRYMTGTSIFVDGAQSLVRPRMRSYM

[4] = target: T4, MBP-tagged SlBSβ (beta subunit of Solanum lycopersicum benzaldehyde synthase)
T4 chain: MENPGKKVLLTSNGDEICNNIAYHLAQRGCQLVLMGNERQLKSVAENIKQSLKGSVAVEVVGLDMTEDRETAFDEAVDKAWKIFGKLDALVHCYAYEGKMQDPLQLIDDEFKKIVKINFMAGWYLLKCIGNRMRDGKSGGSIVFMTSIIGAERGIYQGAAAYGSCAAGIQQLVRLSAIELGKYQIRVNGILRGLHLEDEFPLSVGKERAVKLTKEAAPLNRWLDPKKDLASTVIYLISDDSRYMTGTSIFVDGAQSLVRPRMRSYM

B1: MBP-tagged SlBSα (alpha subunit of Solanum lycopersicum benzaldehyde synthase) (protein)
chain: METHAKSVRQLEPWGELAGKVVMVTGASSGIGRDFCSDLSKAGCRIIAAARRIDRLQSLCDEINSNSSNGSTKSSQDLRAVAIELDVSANGSAIEAAVQKAWDAFGRIDGLVNNAGFRGSVLSPLELSEEEWEKIHKTNLRGAWLVTKYVCMHMRAANQGGSIINISSIAGINRGQLPGSLAYTSSKEALNSITKVLALELGPYKIRVNSISPGLFKSEITEGLIQKDWIKNIELRTIPLRTHGTSHPALTSVVRYLIHDSSEYVSGNMFIVDAGATLPGVPIFSSL
BS activity of cross-species heterodimers (subunits mixed 1:1) [1]: only the AtBSβ subunit was not able to produce active enzymes upon interaction with PhBSα and SlBSα
BS activity of hybrid enzyme relative to SlBS [2]: activities of SlBSα-PhBSβ and SlBSα-PdBSβ were 6.5-fold lower and 2.7-fold higher, respectively, as compared with SlBS
BS activity of hybrid enzyme relative to SlBS [3]: activities of SlBSα-PhBSβ and SlBSα-PdBSβ were 6.5-fold lower and 2.7-fold higher, respectively, as compared with SlBS
benzaldehyde synthase activity (GC-MS) [4]: benzaldehyde synthases from all three organisms (i.e., Solanum lycopersicum, Prunus dulcis, and Arabidopsis thaliana) showed activity only when two purified recombinant subunits were combined

B2: MBP-PhBSα (maltose binding protein-tagged alpha subunit of Petunia hybrida benzaldehyde synthase) (protein)
chain: MEKQTQARFLEPWRDLKGKVVMVTGASSGIGLDLCLDLAKAGCKIIAAARRVDRLKSLCNQINAAADDDDDNNRAVAVELDVSANGDAIEAAVKEAWGAFGRIDALVNNAGVRGTVHSPLELTEEECHNTFRTNLTGTWLVSKYVCKFMRDAKQGGSVINISSIAGLNRGQLPGGLAYVSSKGAVNMVTKVMALELGVDKIRVNSISPGLFKSEITQGLIQKEWLNNVAMRTIPLRTHGNSADPALTSVVRYLIHDSSEYVSGNLFIVDAGATLPGVPIFSSL
BS activity of cross-species heterodimers (subunits mixed 1:1) [1]: only the AtBSβ subunit was not able to produce active enzymes upon interaction with PhBSα and SlBSα
BS activity of cross-species heterodimers (subunits mixed 1:1) [2]: interactions of PdBSβ and SlBSβ with PhBSα resulted in hybrid enzymes with activities almost identical to that of PhBS
benzaldehyde synthase activity (benzoyl-CoA + NADPH, GC-MS) [3]: Neither of the two purified recombinant proteins displayed benzaldehyde synthase activity when tested alone ... however, benzaldehyde was efficiently formed when the two subunit proteins were mixed in equal amounts (e.g., a 1:1 ratio)
BS activity of cross-species heterodimers (subunits mixed 1:1) [4]: interactions of PdBSβ and SlBSβ with PhBSα resulted in hybrid enzymes with activities almost identical to that of PhBS

B3: MBP-tagged AtBSα (alpha subunit of Arabidopsis thaliana benzaldehyde synthase) (protein)
chain: MANQVADHLEPWRHLHGKVVMVTGASSGLGREFCLDLAKAGCRIVAAARRIDRLQSVCDEINQLTVTAPSSSSSSSSVNGPGSSRAVAVELDISADGPAIEKSVNKAWDAFGRIDALVNNAGVRGNVSSSLELSEEEWNNVFKTNLTGSWLVSKYVSIRMRDADQGGSIINVSSIAGLHRGYLPGAVAYNCSKAGVNTLAKVMAMELGVHKIRVNAISPGLFRSEITEGLMKKDWLHNVAMKTVPLRTFGTSDPALTSLVRYLVHDSSEYVSGNVYIVDAGATLPGVPIFSAL
benzaldehyde synthase activity (GC-MS) [1]: benzaldehyde synthases from all three organisms (i.e., Solanum lycopersicum, Prunus dulcis, and Arabidopsis thaliana) showed activity only when two purified recombinant subunits were combined
BS activity of hybrid enzyme [2]: the AtBSα-PdBSβ hybrid was as active as PdBS
BS activity of hybrid enzyme relative to AtBS [2]: increasing activity from 4.6- to 7.8-fold in AtBSα-SlBSβ and AtBSα-PdBSβ, respectively, relative to AtBS
BS activity of hybrid enzyme relative to AtBS [3]: interactions of the three tested β subunits with AtBSα promoted activities of hybrid proteins
BS activity of hybrid enzyme relative to AtBS [4]: increasing activity from 4.6- to 7.8-fold in AtBSα-SlBSβ and AtBSα-PdBSβ, respectively, relative to AtBS

B4: MBP-tagged PdBSα (alpha subunit of Prunus dulcis benzaldehyde synthase) (protein)
chain: B3 chain
benzaldehyde synthase activity (GC-MS) [2]: benzaldehyde synthases from all three organisms (i.e., Solanum lycopersicum, Prunus dulcis, and Arabidopsis thaliana) showed activity only when two purified recombinant subunits were combined
BS activity of hybrid enzyme relative to PdBS [3]: the activities of hybrid enzymes comprising PdBSα were up to 2.5-fold lower than that of PdBS enzyme
BS activity of hybrid enzyme relative to PdBS [4]: the activities of hybrid enzymes comprising PdBSα were up to 2.5-fold lower than that of PdBS enzyme
